The record followed here is patent publication US20070016969A1.

The assay deals with Bovine thrombin (Sigma) (bovine) (UniProt P00735). As to the kind of experiment: cell-based or functional assay.

In turn, “hirudin encoded by the full-length DNA fragment Hi (SEQ ID NO: 17), expressed from pE-αLA-Hi in NMuMG mammary gland cells (from UniProt P01050 1-65)” displayed an amount of culture medium at which there is no coagulation (plasma coagulation, A405) of 10 µL; an amount of culture medium needed for the anti-coagulation reaction at the A405 reading of 0.05 of 0.95 µL; an amount of homogeneous extract of mammary gland cells at which there is no coagulation (plasma coagulation, A405) of 0.25 mg; an amount of homogeneous extract of mammary gland cells needed for the anti-coagulation reaction at the A405 reading of 0.05 of 0.056 mg.

For “commercially available nature hirudin (Sigma) (from UniProt P01050 1-65)”, the amount at which there is almost no coagulation (plasma coagulation, A405) turned out to be 0.16 pmol and the amount needed for the anti-coagulation reaction at the A405 reading of 0.05 is 0.52 pmol.
